Series [1] deals with white blood cells. The following applies: mice, about 2 mg/kg dose, 28 days. Here is the method:
A group of 6 mice are administered various dosages of the cobalamin-paclitaxel bioconjugate prepared in accordance with Example 1 over a 28 day period. The effects to the viable circulating endothelial cell precursors and white blood cells are measured after 28 days.

The subject of series [2] is bFGF-stimulated formation of new blood vessel in the Matrigel plug. As to the kind of experiment: Matrigel plug perfusion in vivo assay (anti-angiogenic efficacy). The following applies: mice, Matrigel and bFGF. From the text:
The assay uses Matrigel, a gelatinous protein mixture secreted by mouse tumor cells and marketed by BD Biosciences, to duplicate tissue environments. Matrigel is liquid at room temperature, but when injected into the animal, forms a solid plug. If a growth vessel stimulant such as basic fibroblast growth factor (bFGF) is mixed with the Matrigel, the bFGF stimulates the formation of new blood vessel in the plug, which can be monitored in the animal via fluorescence techniques. In the current study, Matrigel is injected either alone or with bFGF subcutaneously into mice.

The text below walks through data of patent publication US20080233135A1, “Cobalamin taxane bioconjugates” (priority 2007, published 2008).

As to `CC(=O)O[C@H]1C(=O)[C@@]2(C)C([C@H](OC(=O)c3ccccc3)[C@]3(O)C[C@H](OC(=O)[C@H](OC(=O)C[NH+](C)CC[CH2][Co+][N]4/C5=C(/C)C6=N/C(=C\C7=NC(=C(/C)C8=NC(C(C)C4C(CC(N)=O)C5(C)CCC(=O)NCC(C)OP(=O)([O-])OC4C(CO)OC(n5cnc9cc(C)c(C)cc95)C4O)C(C)(CC(N)=O)C8CCC(N)=O)/C(C)(CC(N)=O)C7CCC(N)=O)C(C)(C)C6CCC(N)=O)[C@@H](NC(=O)c4ccccc4)c4ccccc4)C(C)=C1C3(C)C)[C@]1(OC(C)=O)COC1C[C@@H]2O.[Cl-]` (some centres unmarked) [cobalamin-paclitaxel bioconjugate, Cbl—(CH2)3N(CH3)CH2COO-2′-PTX], in series [1], the “toxicity by white blood cell count” value is “no neutropenia”. Moreover, in series [2], the “anti-angiogenic performance compared with DC101” value was “better performance than that of DC101”.
